Laboratory results reported in patent US20110207656A1 (Dana-Farber, published 2011).
Ends that are not written are not given here.

Target: T1, purified FADD protein (human, UniProt Q13158 1-208, limits assumed)
T1 sequence: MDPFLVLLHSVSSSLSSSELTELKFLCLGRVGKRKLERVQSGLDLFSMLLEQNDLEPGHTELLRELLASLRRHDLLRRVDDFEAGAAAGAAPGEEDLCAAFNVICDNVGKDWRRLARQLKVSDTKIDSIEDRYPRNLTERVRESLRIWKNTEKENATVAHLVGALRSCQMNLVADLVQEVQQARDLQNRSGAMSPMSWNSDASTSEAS
Experiment: GST pull-down of purified FADD, anti-FADD immunoblot
Method: In vitro binding assays. Purified GST, GST-MUC1-CD(1-72), GST-MUC1-CD deletion mutants, GST-caspase-8, GST-caspase-8 deletion mutants, GST-FADD, GST-N-FADD and GST-C-FADD protein (36) were purified from E. coli (BL21 DE3) and immobilized on glutathione-agarose beads (Pierce). His-MUC1-CD(1-72) and His-caspase-8 deletion mutant proteins were purified on Ni-NTA beads (Qiagen, Valencia, Calif.). GST and GST fusion proteins bound to glutathione beads were incubated with purified soluble proteins for 2 hours at 4° C., and washed. Adsorbates bound to the beads were analyzed by solubilizing the protein/bead mixture in Laemli buffer following by sodium dodecyl sulfate polyacrylamide gel electrophoresis (SDS-PAGE) and immunoblotting. For competition studies, GST-caspase-8 DED protein bound to FADD was incubated with increasing amounts of MUC1-CD protein. Precipitated proteins were subjected to SDS-PAGE and immunoblot analysis. In certain studies, binding was performed in the presence of a synthetic peptide ([…]) (SEQ ID NO:3) derived from amino acids 1-20 from MUC1-CD (Molecular Biology Core Facility, Dana-Farber Cancer Institute).

B1: GST-MUC1-CD(1-45) (other)
chain: {GST}-CQCRRKNYGQLDIFPARDTYHPMSEYPTYHTHGRYVPPSSTDRSP
modifications: cysteine pairing not given here; also: linker to GST not given here
notes: also called GST-MUC1-CD deletion mutant; not shown: GST fusion partner at the N end, and any linker to it
  binding result: no binding
